{
  "source": "paper PMC3662962",
  "about": "(Biochemical and biophysical research communications, 2010)",
  "target": "the molecule itself",
  "data": [
    {"protein": "PAS domain of Mycobacterium tuberculosis Rv1364c (residues 1-163) (domain or fragment, Se-Methionine labeled (the crystallised protein only)) MAAEMDWDKTVGAAEDVRRIFEHIPAILVGLEGPDHRFVAVNAAYRGFSPLLDTVGQPAREVYPELEGQQIYEMLDRVYQTGEPQSGSEWRLQTDYDGSGVEERYFDFVVTPRRRADGSIEGVQLIVDDVTSRVRARQAAEARVEELSERYRNVRDSATVMQQ", "values": [
      {"measurement": "stoichiometry N", "value": 2}
    ]}
  ]
}
